# In article PMC3918441:
# Target: KDM5B PHD1 finger (wild type) (human)
# Assay: other fluorescence titration
substance,measurement,value
H3K4me0 peptide (aa 1-12 of H3) (from UniProt P68431 2-13),Kd,1500 nM
